According to publication PMC7811519, “Unusual DNA-binding properties of the Arabidopsis thaliana WRKY50 transcription factor at target gene promoters”:
Residue numbers refer to the chain shown, from its start.

B1: S21 (CRM-ATBBE4) (dsDNA)
DNA 1: TTTATGTTTGACTTTTGTCATATAG
DNA 2: CTATATGACAAAAGTCAAACATAAA
B2: S15 (CRM-DJ1E) (dsDNA)
DNA 1: AGGACTTTTCACCAGTTGGACTTTGAAGCCACCAA
DNA 2: TTGGTGGCTTCAAAGTCCAACTGGTGAAAAGTCCT
B3: S24 (CRM1-WRKY30) (dsDNA)
DNA 1: TGGTCAGCATGTTGGACTTTCCAAATTCATTGACC
DNA 2: GGTCAATGAATTTGGAAAGTCCAACATGCTGACCA
B4: S22 (CRM2-WRKY30) (dsDNA)
DNA 1: GAGAGAGATAGTTTGACTTTTTGACTGAAGAACGA
DNA 2: TCGTTCTTCAGTCAAAAAGTCAAACTATCTCTCTC
B5: S15mut1 (dsDNA)
DNA 1: AGAGTCCCCCACCAGTTGGACTTTGAAGCCACCAA
DNA 2: TTGGTGGCTTCAAAGTCCAACTGGTGGGGGACTCT
B6: S15mut2 (dsDNA)
DNA 1: AGGACTTTTTCTTCACCAGACTTTGAAGCCACCAA
DNA 2: TTGGTGGCTTCAAAGTCTGGTGAAGAAAAAGTCCT
B7: S15mut3 (dsDNA)
DNA 1: AGGACTTTTCACCAGTTGAGTCCCAAAGCCACCAA
DNA 2: TTGGTGGCTTTGGGACTCAACTGGTGAAAAGTCCT
B8: S15mut4 (dsDNA)
DNA 1: AGGACTTTTCACCAGTTGGACTTTGGGATTGTTGG
DNA 2: CCAACAATCCCAAAGTCCAACTGGTGAAAAGTCCT
B9: S15mut13 (dsDNA)
DNA 1: AGAGTCCCCCACCAGTTGAGTCCCAAAGCCACCAA
DNA 2: TTGGTGGCTTTGGGACTCAACTGGTGGGGGACTCT
B10: S21mut4 (dsDNA)
DNA 1: TTTATGTTTAGTCCCTGTCATATAG
DNA 2: CTATATGACAGGGACTAAACATAAA
B11: S21mut5 (dsDNA)
DNA 1: TTTATGTTTGACTCCCGTCATATAG
DNA 2: CTATATGACGGGAGTCAAACATAAA
B12: S21mut1 (dsDNA)
DNA 1: TTTATGTCCAGTATTTGTCATATAG
DNA 2: CTATATGACAAATACTGGACATAAA
B13: S21mut2 (dsDNA)
DNA 1: TTTATGTTTGACTTTTACTGTATAG
DNA 2: CTATACAGTAAAAGTCAAACATAAA
B14: S21mut3 (dsDNA)
DNA 1: TTTATGTCCAGTATTTACTGTATAG
DNA 2: CTATACAGTAAATACTGGACATAAA
B15: S22mut2 (dsDNA)
DNA 1: GAGAGAGATAGTCCAGTCTTTTGACTGAAGAACGA
DNA 2: TCGTTCTTCAGTCAAAAGACTGGACTATCTCTCTC
B16: S22mut3 (dsDNA)
DNA 1: GAGAGAGATAGTCCAGTCTTCCAGTCGAAGAACGA
DNA 2: TCGTTCTTCGACTGGAAGACTGGACTATCTCTCTC
B17: S22mut4 (dsDNA)
DNA 1: GAGAGAGATAGTTTAGTCCCCCGACTGAAGAACGA
DNA 2: TCGTTCTTCAGTCGGGGGACTAAACTATCTCTCTC
B18: S22mut5 (dsDNA)
DNA 1: B4 DNA 1 with T19C, T20C
DNA 2: B4 DNA 2 with A16G, A17G
B19: S24mut2 (dsDNA)
DNA 1: TAACTGGCATGTTGGACTTTCCAAATTCACCAGTT
DNA 2: AACTGGTGAATTTGGAAAGTCCAACATGCCAGTTA
B20: S24mut7 (dsDNA)
DNA 1: TAACTGGCATGTTAAGTCCCTTAAATTCACCAGTT
DNA 2: AACTGGTGAATTTAAGGGACTTAACATGCCAGTTA
B21: S24mut8 (dsDNA)
DNA 1: TGGTCAATGCACCGGACTTTCCAAATTCATTGACC
DNA 2: GGTCAATGAATTTGGAAAGTCCGGTGCATTGACCA
B22: S24mut9 (dsDNA)
DNA 1: TGGTCAGCATGTTGGACTTTCCGGGCCTGTTGACC
DNA 2: GGTCAACAGGCCCGGAAAGTCCAACATGCTGACCA

What follows are binders tested against WRKY50 full length (Arabidopsis thaliana Col-0, UniProt Q8VWQ5 1-173) (assay: EMSA; EMSA with 4-5 ug recombinant protein, 32P probe, 100-fold molar excess competitor; binding buffer, salt, pH and temperature not given (cites Kanofsky et al. 2018)). Conditions: label: 32P end label (as probe).
WRKY50 full length, sequence (Q8VWQ5 whole entry): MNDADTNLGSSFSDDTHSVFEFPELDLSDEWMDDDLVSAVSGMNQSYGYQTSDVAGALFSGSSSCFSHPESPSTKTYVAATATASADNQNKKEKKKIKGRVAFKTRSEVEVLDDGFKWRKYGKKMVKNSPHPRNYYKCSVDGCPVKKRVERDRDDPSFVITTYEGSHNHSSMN
B1: no binding.

What follows are binders tested against T1, WRKY50BD (Arabidopsis thaliana Col-0, UniProt Q8VWQ5 86-173) in the same assay as above. Conditions: tags: His tag (pQE-30, Ni purification; tag not spelled out), label: 32P end label (as probe).
T1 sequence (Q8VWQ5 86-173): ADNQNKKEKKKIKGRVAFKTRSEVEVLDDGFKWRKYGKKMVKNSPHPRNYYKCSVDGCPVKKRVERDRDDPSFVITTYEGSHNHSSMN
B2: binds. B1: binds. B3: binds. B4: binds.

These binders were tested against T1, WRKY50BD (assay: competition EMSA; 100-fold excess vs S15 probe; EMSA with 4-5 ug recombinant protein, 32P probe, 100-fold molar excess competitor; binding buffer, salt, pH and temperature not given (cites Kanofsky et al. 2018)). Conditions: tags: His tag (pQE-30, Ni purification; tag not spelled out).
B5: binds. B6: binds. B7: binds. B8: binds. B9: no binding.

Each binder was assayed against T1, WRKY50BD (assay: competition EMSA; 100-fold excess vs S21 probe; EMSA with 4-5 ug recombinant protein, 32P probe, 100-fold molar excess competitor; binding buffer, salt, pH and temperature not given (cites Kanofsky et al. 2018)). Conditions: tags: His tag (pQE-30, Ni purification; tag not spelled out).
B10: no binding. B11: no binding. B12: no binding. B13: binds. B14: no binding.

The binders below were run against T1, WRKY50BD (assay: competition EMSA; 100-fold excess vs S22 probe; EMSA with 4-5 ug recombinant protein, 32P probe, 100-fold molar excess competitor; binding buffer, salt, pH and temperature not given (cites Kanofsky et al. 2018)). Conditions: tags: His tag (pQE-30, Ni purification; tag not spelled out).
B15: no binding. B16: no binding. B17: no binding. B18: no binding.

The binders below were run against T1, WRKY50BD (assay: competition EMSA; 100-fold excess vs S24 probe; EMSA with 4-5 ug recombinant protein, 32P probe, 100-fold molar excess competitor; binding buffer, salt, pH and temperature not given (cites Kanofsky et al. 2018)). Conditions: tags: His tag (pQE-30, Ni purification; tag not spelled out).
B19: binds. B20: no binding. B21: binds. B22: binds.
